Square brackets hold non-standard residues; d marks the D form. Ends that are not written are not given here.

This experiment has as its target Ac-VQIINK-NH2 (SEQ ID NO: 23) (N-terminal acetyl (Ac); C-terminal amide (NH2)). As to the kind of experiment: cell-based or functional assay.
In the case of [dL][dR][dI][dR][dI][dH][dY][dH] [lririhyh], the “VQIINK Inhibition IC50” value was found to be 3.34 µm.
Regarding [dW][dA][dL][dK][dV][dR][dW] [walkvrw], the “VQIINK Inhibition IC50” value is 3.32 µm.
The value for [dF][dR][dL][dW][dI][dH][dW] [frlwihw] was 4.01 µm; that for [dF][dK][dI][dE][dI][dE][dY][dH] [fkieieyh] was 4.03 µm; that for [dW][dR][dL][dK][dV][dA][dW] [wrlkvaw] was 3.57 µm.
Take [dW][dR][dT][dK][dV][dR][dW] [wrtkvrw]: the “VQIINK Inhibition IC50” value came to 4.41 µm.
For [dW][dR][dL][dA][dV][dR][dW] [wrlavrw] the value was 3.89 µm.
The value for [dL][dK][dI][dR][dI][dH][dY][dE] [lkirihye] was 3.39 µm.
For [dW][dR][dL][dK][dV][dE][dW] [wrlkvew] the value was 4.36 µm; for [dV][dR][dW][dW][dK][dL][dR][dW] [vrwwklrw], 4.06 µm; for [dW][dL][dK][dI][dV][dW] [wlkivw], 3.93 µm.
On to [dI][dL][dK][dI][dV][dW] [ilkivw], for which the “VQIINK Inhibition IC50” value is 4.13 µm.
Consider [dW][dD][dL][dK][dV][dR][dW] [wdlkvrw], for which the “VQIINK Inhibition IC50” value was 3.87 µm.
For [dL][dK][dV][dR][dW][dW][dW][dR] [lkvrwwwr] the value was 3.34 µm; for [dW][dW][dL][dK][dL][dR][dW][dW] [wwlklrww], 3.79 µm; for [dW][dN][dL][dK][dV][dN][dW] [wnlkvnw], 3.5 µm.
For [dW][dR][dL][dW][dI][dH][dW][dW] [wrlwihww] the value was 4.07 µm; for [dW][dE][dL][dR][dI][dH][dW] [welrihw], 3.46 µm; for [dW][dR][dL][dK][dV][dD][dW] [wrlkvdw], 3.21 µm.
The value for [dW][dM][dL][dR][dI][dH][dW] [wmlrihw] was 3.34 µm.
[dK][dV][dR][dW][dW][dL][dR][dW] [kvrwwlrw]: the “VQIINK Inhibition IC50” value was found to be 4.35 µm.
As to [dL][dK][dI][dR][dI][dH][dY][dA] [lkirihya], the “VQIINK Inhibition IC50” value came out at 3.83 µm.

The record behind these values is patent US20200216495A1 (ADRX, published 2020).
